This test addresses integrin β1 expressed by the β1AGD25 cell line. As to the kind of experiment: cell-based or functional assay.

The text below walks through data of patent US20180051068A1.

For the substance “CalA-mCherry expressed in S. cerevisiae that co-expresses Candida albicans Als1”, the endocytosis of S. cerevisiae by β1AGD25 cells (differential fluorescence assay) stood at 3 times.
